Measured values taken from article PMC5839780 (The Journal of Cell Biology, 2018).
Changes are numbered by the printed parent chain. Each block holds one molecule with its values, some of them ahead of it.

Experiments:
[1] = target: T1, HMmm1s–Mdm12 complex (K. lactis) (Kluyveromyces lactis, UniProt Q6CJU9+Q6CUC3); assay: NBD dequenching lipid transfer between liposomes; type: biochemical; settings: 12.5 µM donor and 50 µM acceptor liposomes; pH 7.5; labelled compound
T1 sequence (Q6CJU9 179-434): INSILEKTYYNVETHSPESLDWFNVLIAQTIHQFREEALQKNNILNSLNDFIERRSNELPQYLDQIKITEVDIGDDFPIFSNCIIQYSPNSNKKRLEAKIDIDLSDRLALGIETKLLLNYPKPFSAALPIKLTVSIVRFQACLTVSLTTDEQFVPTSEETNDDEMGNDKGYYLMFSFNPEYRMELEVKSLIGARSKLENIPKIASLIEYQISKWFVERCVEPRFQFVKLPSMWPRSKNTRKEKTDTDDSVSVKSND
T1 sequence (Q6CUC3 1-239): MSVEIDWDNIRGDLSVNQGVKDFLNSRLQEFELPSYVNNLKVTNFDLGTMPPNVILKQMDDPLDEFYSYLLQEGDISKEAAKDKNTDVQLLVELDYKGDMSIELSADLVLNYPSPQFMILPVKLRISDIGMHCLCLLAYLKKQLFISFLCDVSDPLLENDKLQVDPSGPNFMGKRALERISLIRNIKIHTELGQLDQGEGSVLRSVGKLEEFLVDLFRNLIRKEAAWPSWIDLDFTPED

[2] = target: T2, N-terminally His6-tagged K. lactis Mmm1s (179–434) V190S (Kluyveromyces lactis, UniProt Q6CJU9 179-434, V190S); assay: co-purification of a coexpressed complex
T2 sequence (looked up): T1 sequence (Q6CJU9 179-434) with V12S

[3] = target: T3, N-terminally His6-tagged K. lactis Mmm1s (179–434) L274S (Kluyveromyces lactis, UniProt Q6CJU9 179-434, L274S); assay: co-purification of a coexpressed complex
T3 sequence (looked up): T1 sequence (Q6CJU9 179-434) with L96S

[4] = target: T4, N-terminally His6-tagged K. lactis Mmm1s (179–434) I369S (Kluyveromyces lactis, UniProt Q6CJU9 179-434, I369S); assay: co-purification of a coexpressed complex
T4 sequence (looked up): T1 sequence (Q6CJU9 179-434) with I191S

Molecule: CCCCCCCC/C=C\CCCCCCCC(=O)OC[C@H](COP(=O)(O)OC[C@H](Nc1ccc([N+](=O)[O-])c2nonc12)C(=O)O)OC(=O)CCCCCCC/C=C\CCCCCCCC [NBD-PS, 1,2-dioleoyl-sn-glycero-3-phospho-L-serine-N-(7-nitro-2-1,3-benzoxadiazol-4-yl)]
NBD-PS transferred after 10 s [1]: Efficiency of NBD-PS transfer between liposomes by HMmm1s–Mdm12 was threefold higher

binding result [2]: binds
binding result [3]: binds
binding result [4]: binds
B1: KlMdm12 (residues 1–239 of K. lactis Mdm12), nontagged (domain or fragment, Kluyveromyces lactis, UniProt Q6CUC3 1-239, looked up)
chain: T1 sequence (Q6CUC3 1-239)
